{"source": "patent US20240092913A1", "about": "(HANALL BIOPHARMA, published 2024)", "binders": {"B1": {"name": "HL161D antibody (antibody, human IgG1, V domains shown)", "VH": "QLQLQESGPGLVKPSETLSLTCTVSGGSISSSSYYWGWIRQPPGKGLEWIGNIYYSGSTYYNPSLMSRVTISVDTSKNQFSLKLSSVTAADTAVYYCARQLSYNWNDRLFDYWGQGTLVTVSS", "VL": "SYELTQPLSVSVALGQTARITCGGNNIGSKNVHWYQQKPGQAPVLVIYRDSNRPSGIPERFSGSNSGNTATLTISRAQAGDEADYYCQVWDSSTVVFGGGTKLTVLGQPKAAPSVTL", "notes": "the VL entry runs a few residues into the constant region"}, "B2": {"name": "HL161C antibody (antibody, human IgG1, V domains shown)", "VH": "QVQLVQSGAEVKKPGASVKVSCKASGYTFTGCYMHWVRQAPGQGLEWMGRINPNSGGTNYAQKFQGRVTMTRDTSISTAYMDLSRLRSDDTAVYYCARDYSGWSFDYWGQGTLVTVSS", "VL": "DIQMTQSPSSLSASVGDRVTITCRASQGISNYLAWFQQKPGKAPKSLIYAASSLQSGVPSKFSGSGSGTDFTLTISSLQSEDFATYYCQQYDSYPPTFGGGTKVEIKRTVAAPSVFI"}, "B3": {"name": "HL161A antibody (antibody, human IgG1, V domains shown)", "VH": "EVQLLESGGGLVQPGGSLRLSCAASEFTFGSCVMTWVRQAPGKGLEWVSVISGSGGSTYYADSVKGRFTISRDNSKNTLYLQMNSLRAEDTAVYYCAKTPWWLRSPFFDYWGQGTLVTVSS", "VL": "SYVLTQPPSVSVAPGQTARITCGGNNIGSTSVHWYQQKPGQAPVLVVHDDSDRPSGIPERFSGSNSGNTATLTISRVEAGDEADYYCQVRDSSSDHVIFGGGTKLTVLGQPKAAPSVTL"}, "B4": {"name": "HL161B antibody (antibody, V domains shown)", "VH": "QLLLQESGPGLVKPSETLSLTCTVSGGSLSSSFSYWVWIRQPPGKGLEWIGTIYYSGNTYYNPSLKSRLTISVDTSKNHFSLNLSSVTAADTAVYYCARRAGILTGYLDSWGQGTLVTVSS", "VL": "B3 VL with P7S, T30K, H48Y, G63A, R90W, I98V", "notes": "as for B1"}}, "note": "Substitutions are numbered along the chain they refer to.", "data": [{"biological_target": "T1, water-soluble hFcRn (human, UniProt P55899 24-297; P61769 21-119, limits assumed)", "T1 construct": "also called shFcRn; human FcRn", "T1 sequence (P55899 24-297 limits assumed, chain 1 of 2)": "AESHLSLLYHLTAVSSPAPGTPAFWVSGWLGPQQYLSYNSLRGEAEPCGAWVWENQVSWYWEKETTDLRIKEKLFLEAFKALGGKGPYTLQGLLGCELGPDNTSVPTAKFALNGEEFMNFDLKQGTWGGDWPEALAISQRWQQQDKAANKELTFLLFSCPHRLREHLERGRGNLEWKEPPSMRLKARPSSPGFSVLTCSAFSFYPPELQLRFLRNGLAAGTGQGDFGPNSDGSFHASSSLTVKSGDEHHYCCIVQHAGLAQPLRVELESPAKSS", "T1 sequence (P61769 21-119 limits assumed, chain 2 of 2)": "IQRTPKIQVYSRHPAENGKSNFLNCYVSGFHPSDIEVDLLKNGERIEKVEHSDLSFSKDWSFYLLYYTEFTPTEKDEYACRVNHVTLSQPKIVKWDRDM", "experiment": "SPR (Proteon XPR36, GLC chip), shFcRn immobilised, antibody as analyte, pH 7.4, 1:1 Langmuir, mean of six runs", "protocol": "(§1) In kinetic analysis, a 1:1 Langmuir binding model was used, the analysis was repeated six times at each of pH 6.0 and pH 7.4, and the mean KD value was calculated. […], the chip was activated under the conditions of EDAC/NHS 0.5×, 30 μL/min and 300 sec. For immobilization, shFcRn was diluted in acetate buffer (pH 5.5) to concentrations of 2 μg/mL and 250 μL, and the dilution was allowed to flow on the chip at a rate of 30 μL/min. When an immobilization level of 200-300 RU was reached, the reaction was stopped. Then, deactivation was performed using ethanolamine at a rate of 30 μL/min for 300 sec. […] Sample dilution was performed using 1× PBST (pH 7.4) or 1× PBST (pH 6.0) at each pH. For sample analysis, association was performed at 50 μL/min for 200 sec, and the dissociation step was performed at 50 μL/min for 600 sec, after which regeneration was performed using glycine buffer (pH 2.5) at 100 μL/min for 18 sec. The kinetic analysis of each sample was repeated six times, and then the mean antigen binding affinity (KD) was measured.", "units": {"Kd": "nM", "koff": "s⁻¹", "kon": "M⁻¹ s⁻¹"}, "values": [{"binder": "B1", "Kd": 1.78, "koff": 0.00124, "kon": 699000}, {"binder": "B2", "Kd": 0.232, "koff": 0.000316, "kon": "1.36e+06"}, {"binder": "B3", "Kd": 0.247, "koff": 0.000327, "kon": "1.32e+06"}, {"binder": "B4", "Kd": 1.76, "koff": 0.00125, "kon": 710000}]}, {"biological_target": "T1, water-soluble hFcRn", "experiment": "SPR (Proteon XPR36, GLC chip), shFcRn immobilised, antibody as analyte, pH 6.0, 1:1 Langmuir, mean of six runs", "protocol": "as §1", "units": {"Kd": "nM", "koff": "s⁻¹", "kon": "M⁻¹ s⁻¹"}, "values": [{"binder": "B1", "Kd": 1.43, "koff": 0.00138, "kon": 970000}, {"binder": "B2", "Kd": 0.191, "koff": 0.000332, "kon": "1.74e+06"}, {"binder": "B3", "Kd": 0.18, "koff": 0.000326, "kon": "1.81e+06"}, {"binder": "B4", "Kd": 0.807, "koff": 0.000735, "kon": 912000}]}, {"biological_target": "T2, human FcRn on human FcRn-expressing stable HEK293 cells (human, UniProt P55899 24-365; P61769 21-119)", "T2 construct": "also called hFcRn-expressing HEK293 cells; human FcRn-overexpressing HEK293 cells", "T2 sequence (P55899 24-365 limits assumed, chain 1 of 2)": "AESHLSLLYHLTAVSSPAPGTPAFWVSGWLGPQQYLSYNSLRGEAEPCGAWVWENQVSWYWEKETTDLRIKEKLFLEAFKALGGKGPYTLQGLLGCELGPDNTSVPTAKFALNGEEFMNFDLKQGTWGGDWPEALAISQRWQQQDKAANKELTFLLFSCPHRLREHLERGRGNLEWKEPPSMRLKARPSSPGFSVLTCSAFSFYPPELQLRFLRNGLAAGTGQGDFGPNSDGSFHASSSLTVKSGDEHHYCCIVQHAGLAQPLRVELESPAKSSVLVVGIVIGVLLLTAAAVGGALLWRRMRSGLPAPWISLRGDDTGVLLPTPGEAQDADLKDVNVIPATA", "T2 sequence (P61769 21-119 limits assumed, chain 2 of 2)": "as the sequence (P61769 21-119 limits assumed, chain 2 of 2) above", "experiment": "FACS on human FcRn-expressing stable HEK293 cells, pH 7.4, 0.11-250 nM antibody, 4 parameter logistic regression of MFI", "protocol": "The plate was mounted in a rotator at 4° C. and rotated at an angle of 15° and 10 rpm for 90 minutes. […] The FACS measurement was performed under the following conditions: FS 108 volts, SS 426 volts, FL1 324 volts, FL2 300 volts. These cells were analyzed by FACS using BD FACSDiva™ v6.1.3 software (BD Bioscience).", "units": {"EC50": "nM"}, "values": [{"binder": "B3", "EC50": 2.46}, {"binder": "B4", "EC50": 1.2}]}, {"biological_target": "T2, human FcRn on human FcRn-expressing …", "experiment": "FACS competition on human FcRn-overexpressing HEK293 cells, pH 6.0, blocking of Alexa488-hIgG1, antibody 0.01-200 nM, 4-parameter logistic regression", "protocol": "Each antibody sample was diluted to 400 nM, and then diluted by 4-fold serial dilution in a 96-well v-bottom plate. 50 μL of the sample diluted to a final concentration of 200 nM to 0.01 nM was added to each well. […] Finally, 40 μL of cells diluted to a cell concentration of 2.5×10⁶ cells/mL were added to each well and suspended. The plate was mounted in a rotator at 4° C. and rotated at an angle of 15° and 10 rpm for 90 minutes. After completion of the reaction, the plate was taken out of the rotator, and centrifuged at 2000 rpm for 10 minutes to remove the supernatant. 100 μL of reaction buffer was added to each well to dissolve the cell pellets, and the plate was transferred into a blue test tube. Then, 200 μL of reaction buffer was added to each well, and measurement was performed in FACS. The FACS measurement was performed under the following conditions: FS 108 volts, SS 426 volts, FL1 324 volts, FL2 300 volts. These cells were analyzed by FACS using BD FACSDiva™ v6.1.3 software (BD Bioscience). The results were expressed as mean fluorescence intensity (MFI). The MFI of the test group was processed after subtracting the measured MFI value of the cells alone (background signal).", "units": {"IC50": "nM"}, "values": [{"binder": "B3", "IC50": 0.92}, {"binder": "B4", "IC50": 2.24}]}]}
